Legend:
Assay in all cases: gcPBM; about 25 ug protein; PBS, 1% milk, 0.2 mg/ml BSA, salmon testes DNA, 0.03% Triton X-100
Conditions in all cases: tags: N-terminal GST (pGEX-4T-1), kept; label: surface-attached array probe
PF3D7_0420300 D1 = target: T1, PF3D7_0420300 D1 (Plasmodium falciparum, UniProt Q8I1N6 1956-2015)
T1 sequence: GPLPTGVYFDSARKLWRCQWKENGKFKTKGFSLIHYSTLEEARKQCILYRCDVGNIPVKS

AP2-HC D1 = target: T2, AP2-HC D1 (Plasmodium falciparum, UniProt Q8IKR9 1316-1374)
T2 sequence: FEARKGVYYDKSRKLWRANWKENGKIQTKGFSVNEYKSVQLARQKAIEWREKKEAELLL

AP2-LT D1 = target: T3, AP2-LT D1 (Plasmodium falciparum, UniProt Q8IAM1 2520-2577)
T3 sequence: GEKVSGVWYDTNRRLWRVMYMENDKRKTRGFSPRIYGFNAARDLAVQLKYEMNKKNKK

| Binder | binding signal (PF3D7_0420300 D1) | binding signal (AP2-HC D1) | binding signal (AP2-LT D1) |
| --- | --- | --- | --- |
| CACACA_negctrl_site272 (dsDNA) DNA 1: TACCTTTCTTATTATTGAAAAGGAATATATAAATAG DNA 2: CTATTTATATATTCCTTTTCAATAATAAGAAAGGTA | 8.89 ln median PBM intensity, better of two orientations | 9.13 ln median PBM intensity, better of two orientations |  |
| CACACA_site365 (dsDNA) DNA 1: CACCCCCACAGACACACACACACACCCACATATATA DNA 2: TATATATGTGGGTGTGTGTGTGTGTCTGTGGGGGTG | 10.4 ln median PBM intensity, better of two orientations | 10.8 ln median PBM intensity, better of two orientations |  |
| CACACA_site6350 (dsDNA) DNA 1: CACAAACAGACAAACACACACACACGGACATACATA DNA 2: TATGTATGTCCGTGTGTGTGTGTTTGTCTGTTTGTG |  | 10.6 ln median PBM intensity, better of two orientations | 10.2 ln median PBM intensity, better of two orientations |
| CACACA_negctrl_site1509 (dsDNA) DNA 1: TTTAAAAAATGTTATATTATATAATTAAAAAAAAAA DNA 2: TTTTTTTTTTAATTATATAATATAACATTTTTTAAA |  | 9.35 ln median PBM intensity, better of two orientations | 8.38 ln median PBM intensity, better of two orientations |
| CACACA_negctrl_site1027 (dsDNA) DNA 1: ATTAAAAAGACAAAAAAAAAATTTTTTTTTTTTTTT DNA 2: AAAAAAAAAAAAAAATTTTTTTTTTGTCTTTTTAAT |  | 9.26 ln median PBM intensity, better of two orientations | 8.44 ln median PBM intensity, better of two orientations |
| CACACA_site4553 (dsDNA) DNA 1: AAAAAAAGATTATACACACACATATATAAACATACA DNA 2: TGTATGTTTATATATGTGTGTGTATAATCTTTTTTT | 10.1 ln median PBM intensity, better of two orientations | 10.7 ln median PBM intensity, better of two orientations |  |
| CACACA_site7754 (dsDNA) DNA 1: TAAAATAAAACAAACACACACACACGGACACAAAAA DNA 2: TTTTTGTGTCCGTGTGTGTGTGTTTGTTTTATTTTA | 10.4 ln median PBM intensity, better of two orientations | 11.9 ln median PBM intensity, better of two orientations |  |
| CACACA_negctrl_site49 (dsDNA) DNA 1: AATATATAAATATATATAAATAAATATATATATAAA DNA 2: TTTATATATATATTTATTTATATATATTTATATATT | 8.92 ln median PBM intensity, better of two orientations | 9.5 ln median PBM intensity, better of two orientations |  |
| CACACA_negctrl_site22 (dsDNA) DNA 1: TTTTAAGATATAAATTAATACTTATATATATAGATA DNA 2: TATCTATATATATAAGTATTAATTTATATCTTAAAA |  | 9.27 ln median PBM intensity, better of two orientations | 8.45 ln median PBM intensity, better of two orientations |
| CACACA_negctrl_site1564 (dsDNA) DNA 1: AAAATGTCCCGTAGAAAATAAATTTATTACGCAATA DNA 2: TATTGCGTAATAAATTTATTTTCTACGGGACATTTT | 9.06 ln median PBM intensity, better of two orientations | 9.41 ln median PBM intensity, better of two orientations |  |
| CACACA_negctrl_site1599 (dsDNA) DNA 1: TTTTTAAATTATTTGAAAAAAAGAAAATTATAAACA DNA 2: TGTTTATAATTTTCTTTTTTTCAAATAATTTAAAAA |  | 9.26 ln median PBM intensity, better of two orientations | 8.26 ln median PBM intensity, better of two orientations |
| CACACA_site8410 (dsDNA) DNA 1: AAAAAATCACAACACACACACACACTAATAAAAAAA DNA 2: TTTTTTTATTAGTGTGTGTGTGTGTTGTGATTTTTT |  | 12.3 ln median PBM intensity, better of two orientations | 10.7 ln median PBM intensity, better of two orientations |
| CACACA_negctrl_site1538 (dsDNA) DNA 1: TTTTTTTTTAAGATGAAGATCAATATATAAATATAT DNA 2: ATATATTTATATATTGATCTTCATCTTAAAAAAAAA |  | 8.98 ln median PBM intensity, better of two orientations | 8.23 ln median PBM intensity, better of two orientations |
| CACACA_site7658 (dsDNA) DNA 1: AATAAAAAGGAACACACACACACACGGATATAAATA DNA 2: TATTTATATCCGTGTGTGTGTGTGTTCCTTTTTATT | 10.5 ln median PBM intensity, better of two orientations | 11.7 ln median PBM intensity, better of two orientations |  |
| CACACA_negctrl_site709 (dsDNA) DNA 1: TGAAAAAAAAAAAAAAAAAAAAGAAAAAAAAAAAAA DNA 2: TTTTTTTTTTTTTCTTTTTTTTTTTTTTTTTTTTCA |  | 8.7 ln median PBM intensity, better of two orientations | 8.21 ln median PBM intensity, better of two orientations |
| CACACA_site4689 (dsDNA) DNA 1: ATAACCTAATAATACACACACATGAATATATATAAT DNA 2: ATTATATATATTCATGTGTGTGTATTATTAGGTTAT |  | 10.4 ln median PBM intensity, better of two orientations | 9.77 ln median PBM intensity, better of two orientations |
| CACACA_site2430 (dsDNA) DNA 1: CAAACAAACAGACACACACACACACCCAAAAATGAT DNA 2: ATCATTTTTGGGTGTGTGTGTGTGTCTGTTTGTTTG |  | 12.2 ln median PBM intensity, better of two orientations | 10.6 ln median PBM intensity, better of two orientations |

| Binder | binding signal (PF3D7_0420300 D1) | binding signal (AP2-HC D1) | binding signal (AP2-LT D1) |
| --- | --- | --- | --- |
| CACACA_site5576 (dsDNA) DNA 1: AAAAAAAAAAAACACACACACACACCGACACATACA DNA 2: TGTATGTGTCGGTGTGTGTGTGTGTTTTTTTTTTTT |  | 12.5 ln median PBM intensity, better of two orientations | 10.6 ln median PBM intensity, better of two orientations |
| CACACA_site7363 (dsDNA) DNA 1: AAAAAAAAAAGACACACACACACACGGACACATACA DNA 2: TGTATGTGTCCGTGTGTGTGTGTGTCTTTTTTTTTT |  | 11.9 ln median PBM intensity, better of two orientations | 10.2 ln median PBM intensity, better of two orientations |
| CACACA_negctrl_site803 (dsDNA) DNA 1: TTTTGTAAAAAAAAAAAAAAAGGAAAATTAAAATAA DNA 2: TTATTTTAATTTTCCTTTTTTTTTTTTTTTACAAAA |  | 9.16 ln median PBM intensity, better of two orientations | 8.33 ln median PBM intensity, better of two orientations |
| CACACA_site362 (dsDNA) DNA 1: CACCCACACCAACACACACACATATATATATATATA DNA 2: TATATATATATATATGTGTGTGTGTTGGTGTGGGTG |  | 11.7 ln median PBM intensity, better of two orientations | 10.8 ln median PBM intensity, better of two orientations |
| CACACA_site8345 (dsDNA) DNA 1: AATACCCAAGGACACACACACACATATATATATATA DNA 2: TATATATATATATGTGTGTGTGTGTCCTTGGGTATT |  | 11.8 ln median PBM intensity, better of two orientations | 10.8 ln median PBM intensity, better of two orientations |
| CACACA_site2305 (dsDNA) DNA 1: TTCCCCCCCAGACACACACACACATACATACCACAT DNA 2: ATGTGGTATGTATGTGTGTGTGTGTCTGGGGGGGAA | 10.4 ln median PBM intensity, better of two orientations | 12.1 ln median PBM intensity, better of two orientations |  |
| CACACA_negctrl_site934 (dsDNA) DNA 1: AATTTTATTTAATTTTTTTGGGAAATGATAAAATTT DNA 2: AAATTTTATCATTTCCCAAAAAAATTAAATAAAATT |  | 9.22 ln median PBM intensity, better of two orientations | 8.39 ln median PBM intensity, better of two orientations |
| CACACA_negctrl_site1139 (dsDNA) DNA 1: ATTTTTTTTTTTTTTATTCCCCTTTCGAAAAAAACC DNA 2: GGTTTTTTTCGAAAGGGGAATAAAAAAAAAAAAAAT | 9.05 ln median PBM intensity, better of two orientations | 9.47 ln median PBM intensity, better of two orientations |  |
| CACACA_negctrl_site1096 (dsDNA) DNA 1: ATTATATTCTTTACTACCAATTAGTAGAAAATAAAA DNA 2: TTTTATTTTCTACTAATTGGTAGTAAAGAATATAAT | 8.9 ln median PBM intensity, better of two orientations | 9.31 ln median PBM intensity, better of two orientations |  |
| CACACA_site2431 (dsDNA) DNA 1: AACAAACACAGACACACACACACACCCAAATGATTA DNA 2: TAATCATTTGGGTGTGTGTGTGTGTCTGTGTTTGTT |  | 11.7 ln median PBM intensity, better of two orientations | 10.8 ln median PBM intensity, better of two orientations |
| CACACA_site4184 (dsDNA) DNA 1: TGAATAAATAAACACACACACATATATATATCTGTA DNA 2: TACAGATATATATATGTGTGTGTGTTTATTTATTCA |  | 10.8 ln median PBM intensity, better of two orientations | 10.1 ln median PBM intensity, better of two orientations |
| CACACA_site1724 (dsDNA) DNA 1: TATATACGCAAACACACACACACATACACCCACATA DNA 2: TATGTGGGTGTATGTGTGTGTGTGTTTGCGTATATA |  | 11.9 ln median PBM intensity, better of two orientations | 10.4 ln median PBM intensity, better of two orientations |
| CACACA_negctrl_site358 (dsDNA) DNA 1: TGTTTCCAAAAAAAAAAAAAAAAAAAAAAAAAAAAA DNA 2: TTTTTTTTTTTTTTTTTTTTTTTTTTTTTGGAAACA |  | 8.96 ln median PBM intensity, better of two orientations | 8.01 ln median PBM intensity, better of two orientations |
| CACACA_negctrl_site1674 (dsDNA) DNA 1: TATTTTAATTATAAATTTAAAAAAAAAAAGAAAAAA DNA 2: TTTTTTCTTTTTTTTTTTAAATTTATAATTAAAATA |  | 9.42 ln median PBM intensity, better of two orientations | 8.52 ln median PBM intensity, better of two orientations |
| CACACA_site4721 (dsDNA) DNA 1: AACATTATAGGACACACACACACATATATATATATA DNA 2: TATATATATATATGTGTGTGTGTGTCCTATAATGTT |  | 11.9 ln median PBM intensity, better of two orientations | 10.7 ln median PBM intensity, better of two orientations |
| CACACA_site6215 (dsDNA) DNA 1: AAAAAAAAAAGACACACACACACATAAATATAAATA DNA 2: TATTTATATTTATGTGTGTGTGTGTCTTTTTTTTTT | 10.3 ln median PBM intensity, better of two orientations | 12.2 ln median PBM intensity, better of two orientations |  |

Source: paper PMC11417369, “DNA sequence and chromatin differentiate sequence-specific transcription factor binding in the human malaria parasite Plasmodium falciparum”
